# Results from article PMC6598095 (Journal of Experimental Botany, 2019).
# T1: AtGL3 (F177I) (Arabidopsis thaliana, UniProt Q9FN69 1-637, F177I)
# T1 sequence: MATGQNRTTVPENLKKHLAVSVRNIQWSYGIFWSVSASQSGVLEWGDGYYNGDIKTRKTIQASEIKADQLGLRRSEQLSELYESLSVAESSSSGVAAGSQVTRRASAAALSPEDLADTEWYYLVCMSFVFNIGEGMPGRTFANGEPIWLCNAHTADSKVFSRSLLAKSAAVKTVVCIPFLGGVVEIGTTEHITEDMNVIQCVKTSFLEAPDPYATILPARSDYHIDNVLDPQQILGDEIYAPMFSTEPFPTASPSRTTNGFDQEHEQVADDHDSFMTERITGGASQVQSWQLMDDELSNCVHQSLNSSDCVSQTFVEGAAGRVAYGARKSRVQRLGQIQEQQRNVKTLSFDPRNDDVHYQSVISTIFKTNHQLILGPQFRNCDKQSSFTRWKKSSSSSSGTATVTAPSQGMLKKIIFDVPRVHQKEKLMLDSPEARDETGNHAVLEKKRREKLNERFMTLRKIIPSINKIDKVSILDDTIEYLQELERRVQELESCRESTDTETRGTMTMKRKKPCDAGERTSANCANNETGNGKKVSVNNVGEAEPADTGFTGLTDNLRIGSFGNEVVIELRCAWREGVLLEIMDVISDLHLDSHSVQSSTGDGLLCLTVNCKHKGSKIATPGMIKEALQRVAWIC
# Target: T1, AtGL3 (F177I)
# Experiment: pull-down
row,Binder,percent reduction of binding against wild-type AtGL3
1,AtPAP1 (natural protein) MEGSSKGLRKGAWTTEEDSLLRQCINKYGEGKWHQVPVRAGLNRCRKSCRLRWLNYLKPSIKRGKLSSDEVDLLLRLHRLLGNRWSLIAGRLPGRTANDVKNYWNTHLSKKHEPCCKIKMKKRDITPIPTTPALKNNVYKPRPRSFTVNNDCNHLNAPPKVDVNPPCLGLNINNVCDNSIIYNKDKKKDQLVNNLIDGDNMWLEKFLEESQEVDILVPEATTTEKGDTLAFDVDQLWSLFDGETVKFD,30%
2,AtMYB61 (natural protein) not shown,30%
3,AtPAP2 (natural protein) MEGSSKGLRKGAWTAEEDSLLRLCIDKYGEGKWHQVPLRAGLNRCRKSCRLRWLNYLKPSIKRGRLSNDEVDLLLRLHKLLGNRWSLIAGRLPGRTANDVKNYWNTHLSKKHESSCCKSKMKKKNIISPPTTPVQKIGVFKPRPRSFSVNNGCSHLNGLPEVDLIPSCLGLKKNNVCENSITCNKDDEKDDFVNNLMNGDNMWLENLLGENQEADAIVPEATTAEHGATLAFDVEQLWSLFDGETVELD,30%
4,AtWER (natural protein) MRKKVSSSGDEGNNEYKKGLWTVEEDKILMDYVKAHGKGHWNRIAKKTGLKRCGKSCRLRWMNYLSPNVKRGNFTEQEEDLIIRLHKLLGNRWSLIAKRVPGRTDNQVKNYWNTHLSKKLGIKDQKTKQSNGDIVYQINLPNPTETSEETKISNIVDNNNILGDEIQEDHQGSNYLSSLWVHEDEFELSTLTNMMDFIDGHCF,30%
5,AtTT2 (natural protein) MGKRATTSVRREELNRGAWTDHEDKILRDYITTHGEGKWSTLPNQAGLKRCGKSCRLRWKNYLRPGIKRGNISSDEEELIIRLHNLLGNRWSLIAGRLPGRTDNEIKNHWNSNLRKRLPKTQTKQPKRIKHSTNNENNVCVIRTKAIRCSKTLLFSDLSLQKKSSTSPLPLKEQEMDQGGSSLMGDLEFDFDRIHSEFHFPDLMDFDGLDCGNVTSLVSSNEILGELVPAQGNLDLNRPFTSCHHRGDDEDWLRDFTC,30%
6,AtGL1 (natural protein) MRIRRRDEKENQEYKKGLWTVEEDNILMDYVLNHGTGQWNRIVRKTGLKRCGKSCRLRWMNYLSPNVNKGNFTEQEEDLIIRLHKLLGNRWSLIAKRVPGRTDNQVKNYWNTHLSKKLVGDYSSAVKTTGEDDDSPPSLFITAATPSSCHHQQENIYENIAKSFNGVVSASYEDKPKQELAQKDVLMATTNDPSHYYGNNALWVHDDDFELSSLVMMNFASGDVEYCL,30%
